Columns and labels:
Assay type in all cases: in vivo
[1] = test system: non-human primates (cynomolgus monkey); experiment: Example 21: LNP IV in non-human primates, serum EPO/G-CSF ELISA (Table 37); conditions: for protein expression detectable out to: NHP IV
Method: (§1) Formulations, listed in Table 33, were characterized by particle size, zeta potential, and encapsulation.
LNP formulations, shown in Table 33 (above), were administered to non-human primates (NHP) (cynomolgus monkey) (n=2) as a bolus intravenous injection (IV) over approximately 30 seconds using a hypodermic needle, which may be attached to a syringe/abbocath or butterfly if needed. The NHP were administered a single modified mRNA IV dose of 0.05 mg/kg of EPO or G-CSF or 0.005 mg/kg of EPO in a dose volume of 0.5 mL/kg. The NHPs were bled 5-6 days before dosing with the modified mRNA LNP formulations to determine protein expression in the serum and a baseline complete blood count. After administration with the modified mRNA formulation the NHP were bled at 8, 24, 48 and 72 hours to determined protein expression. At 24 and 72 hours after administration the complete blood count of the NHP was also determined. Protein expression of G-CSF and EPO was determined by ELISA. Urine from the NHPs was collected over the course of the entire experiment and analyzed to evaluate clinical safety. Samples were collected from the NHPs after they were administered with G-CSF or EPO modified mRNA formulations to determine protein expression using ELISA. Clinical chemistry, hematology, urinalysis and cytokines of the non-human primates were also analyzed.

[2] = test system: mice; experiment: Example 19A: LNP IV in mice, serum EPO/G-CSF ELISA (Table 36)
Method: as §1
LNP formulations, shown in Table 33 (above), were administered to mice (n=4) intravenously (IV) at a single modified mRNA dose 0.05 mg/kg or 0.005 mg/kg. There was also 3 control groups of mice (n=4) that were untreated. The mice were bled at 2 hours, 8 hours, 24 hours, 48 hours and 72 hours after they were administered with G-CSF or EPO modified mRNA formulations to determine the protein expression. Protein expression of G-CSF and EPO were determined using ELISA.

[3] = test system: rats; experiment: Example 17: LNP IV, IM, SC in rats, serum EPO/G-CSF ELISA (Table 34); conditions: for EPO / G-CSF Serum Concentration: LNP 0.05 mg/kg
Method: as §1
LNP formulations, shown in Table 33 (above), were administered to rats (n=5) intravenously (IV), intramuscularly (IM) or subcutaneously (SC) at a single modified mRNA dose of 0.05 mg/kg. A control group of rats (n=4) was untreated. […] The rats administered EPO modified mRNA intravenously were also bled at 7 days.

B1: EPO: modified mRNA encoding human erythropoietin, SEQ ID NO: 7, Cap1, fully modified with 5-methylcytosine and pseudouridine; LNP NPA-060-1 in Examples 17-22 (nucleic acid)
chain: GGGAAAUAAGAGAGAAAAGAAGAGUAAGAAGAAAUAUAAGAGCCACCAUGGGAGUGCACGAGUGUCCCGCGUGGUUGUGGUUGCUGCUGUCGCUCUUGAGCCUCCCACUGGGACUGCCUGUGCUGGGGGCACCACCCAGAUUGAUCUGCGACUCACGGGUACUUGAGAGGUACCUUCUUGAAGCCAAAGAAGCCGAAAACAUCACAACCGGAUGCGCCGAGCACUGCUCCCUCAAUGAGAACAUUACUGUACCGGAUACAAAGGUCAAUUUCUAUGCAUGGAAGAGAAUGGAAGUAGGACAGCAGGCCGUCGAAGUGUGGCAGGGGCUCGCGCUUUUGUCGGAGGCGGUGUUGCGGGGUCAGGCCCUCCUCGUCAACUCAUCACAGCCGUGGGAGCCCCUCCAACUUCAUGUCGAUAAAGCGGUGUCGGGGCUCCGCAGCUUGACGACGUUGCUUCGGGCUCUGGGCGCACAAAAGGAGGCUAUUUCGCCGCCUGACGCGGCCUCCGCGGCACCCCUCCGAACGAUCACCGCGGACACGUUUAGGAAGCUUUUUAGAGUGUACAGCAAUUUCCUCCGCGGAAAGCUGAAAUUGUAUACUGGUGAAGCGUGUAGGACAGGGGAUCGCUGAUAAGCUGCCUUCUGCGGGGCUUGCCUUCUGGCCAUGCCCUUCUUCUCUCCCUUGCACCUGUACCUCUUGGUCUUUGAAUAAAGCCUGAGUAGGAAG
modifications: Cap1, 5-methylcytosine, pseudouridine
Average Serum Concentration ([1]; 0.005 mg/kg IV, 8 hours): 387 pg/mL | Female NHP Serum Concentration ([1]; 0.005 mg/kg IV, 8 hours): 523 pg/mL | Male NHP Serum Concentration ([1]; 0.005 mg/kg IV, 8 hours): 250 pg/mL | Average Serum Concentration ([1]; 0.005 mg/kg IV, 24 hours): 208 pg/mL | Female NHP Serum Concentration ([1]; 0.005 mg/kg IV, 24 hours): 302 pg/mL | Male NHP Serum Concentration ([1]; 0.005 mg/kg IV, 24 hours): 113 pg/mL | Average Serum Concentration ([1]; 0.005 mg/kg IV, 48 hours): <7.8 pg/mL | Female NHP Serum Concentration ([1]; 0.005 mg/kg IV, 48 hours): <7.8 pg/mL | Male NHP Serum Concentration ([1]; 0.005 mg/kg IV, 48 hours): <7.8 pg/mL | Average Serum Concentration ([1]; 0.005 mg/kg IV, 72 hours): 0 pg/mL | Female NHP Serum Concentration ([1]; 0.005 mg/kg IV, 72 hours): 0 pg/mL | Male NHP Serum Concentration ([1]; 0.005 mg/kg IV, 72 hours): 0 pg/mL | Average Serum Concentration ([1]; 0.005 mg/kg IV, Pre-bleed): 0 pg/mL | Female NHP Serum Concentration ([1]; 0.005 mg/kg IV, Pre-bleed): 0 pg/mL | Male NHP Serum Concentration ([1]; 0.005 mg/kg IV, Pre-bleed): 0 pg/mL | Average Serum Concentration ([1]; 0.05 mg/kg IV, 8 hours): 13,465 pg/ml | Female NHP Serum Concentration ([1]; 0.05 mg/kg IV, 8 hours): 19,858 pg/ml | Male NHP Serum Concentration ([1]; 0.05 mg/kg IV, 8 hours): 7,072 pg/ml | Average Serum Concentration ([1]; 0.05 mg/kg IV, 24 hours): 11,546 pg/ml | Female NHP Serum Concentration ([1]; 0.05 mg/kg IV, 24 hours): 18,178 pg/ml | Male NHP Serum Concentration ([1]; 0.05 mg/kg IV, 24 hours): 4,913 pg/ml | Average Serum Concentration ([1]; 0.05 mg/kg IV, 48 hours): 2,895 pg/ml | Female NHP Serum Concentration ([1]; 0.05 mg/kg IV, 48 hours): 5,291 pg/ml | Male NHP Serum Concentration ([1]; 0.05 mg/kg IV, 48 hours): 498 pg/mL | Average Serum Concentration ([1]; 0.05 mg/kg IV, 72 hours): 402 pg/mL | Female NHP Serum Concentration ([1]; 0.05 mg/kg IV, 72 hours): 744 pg/mL | Male NHP Serum Concentration ([1]; 0.05 mg/kg IV, 72 hours): 60 pg/mL | Average Serum Concentration ([1]; 0.05 mg/kg IV, Pre-bleed): 0 pg/mL | Female NHP Serum Concentration ([1]; 0.05 mg/kg IV, Pre-bleed): 0 pg/mL | Male NHP Serum Concentration ([1]; 0.05 mg/kg IV, Pre-bleed): 0 pg/mL | protein expression detectable out to ([1]; 0.005 mg/kg): 48 h | protein expression detectable out to ([1]; 0.05 mg/kg): 72 h | EPO / G-CSF Serum Concentration ([2]; 0.005 mg/kg, 2 hours): OSC | EPO / G-CSF Serum Concentration ([2]; 0.005 mg/kg, 8 hours): 1,632.8 pg/ml | EPO / G-CSF Serum Concentration ([2]; 0.005 mg/kg, 24 hours): 1,141.0 pg/ml | EPO / G-CSF Serum Concentration ([2]; 0.005 mg/kg, 48 hours): 137.4 pg/mL | EPO / G-CSF Serum Concentration ([2]; 0.005 mg/kg, 72 hours): 0 pg/mL | EPO / G-CSF Serum Concentration ([2]; 0.05 mg/kg, 2 hours): 10,027.3 pg/ml | EPO / G-CSF Serum Concentration ([2]; 0.05 mg/kg, 8 hours): 56,547.2 pg/ml | EPO / G-CSF Serum Concentration ([2]; 0.05 mg/kg, 24 hours): 25,027.3 pg/ml | EPO / G-CSF Serum Concentration ([2]; 0.05 mg/kg, 48 hours): 1,432.3 pg/ml | EPO / G-CSF Serum Concentration ([2]; 0.05 mg/kg, 72 hours): 82.2 pg/mL | protein expression detectable out to ([3]; IV): 5 days | EPO / G-CSF Serum Concentration ([3]; IM, 2 hours): 1395.4 pg/mL | EPO / G-CSF Serum Concentration ([3]; IM, 8 hours): 8974.6 pg/mL | EPO / G-CSF Serum Concentration ([3]; IM, 24 hours): 4678.3 pg/mL | EPO / G-CSF Serum Concentration ([3]; IV, 2 hours): 36,981.0 pg/ml | EPO / G-CSF Serum Concentration ([3]; IV, 8 hours): 62,053.3 pg/ml | EPO / G-CSF Serum Concentration ([3]; IV, 24 hours): 42,077.0 pg/ml | EPO / G-CSF Serum Concentration ([3]; IV, 48 hours): 5,561.5 pg/ml | EPO / G-CSF Serum Concentration ([3]; IV, 5 days): 0.0 pg/mL | EPO / G-CSF Serum Concentration ([3]; IV, 7 days): 0.0 pg/mL | EPO / G-CSF Serum Concentration ([3]; SC, 2 hours): 386.2 pg/mL | EPO / G-CSF Serum Concentration ([3]; SC, 8 hours): 985.6 pg/mL | EPO / G-CSF Serum Concentration ([3]; SC, 24 hours): 544.2 pg/mL | protein expression detectable to ([3]; subcutaneous and intramuscular): at least 24 hours
